Residue numbers refer to the chain shown, from its start. Read-outs that look alike come from different tables or passages of the source.
T1: MutS-E41A (Thermus aquaticus, UniProt Q56215 1-811, E41A)
T1 sequence: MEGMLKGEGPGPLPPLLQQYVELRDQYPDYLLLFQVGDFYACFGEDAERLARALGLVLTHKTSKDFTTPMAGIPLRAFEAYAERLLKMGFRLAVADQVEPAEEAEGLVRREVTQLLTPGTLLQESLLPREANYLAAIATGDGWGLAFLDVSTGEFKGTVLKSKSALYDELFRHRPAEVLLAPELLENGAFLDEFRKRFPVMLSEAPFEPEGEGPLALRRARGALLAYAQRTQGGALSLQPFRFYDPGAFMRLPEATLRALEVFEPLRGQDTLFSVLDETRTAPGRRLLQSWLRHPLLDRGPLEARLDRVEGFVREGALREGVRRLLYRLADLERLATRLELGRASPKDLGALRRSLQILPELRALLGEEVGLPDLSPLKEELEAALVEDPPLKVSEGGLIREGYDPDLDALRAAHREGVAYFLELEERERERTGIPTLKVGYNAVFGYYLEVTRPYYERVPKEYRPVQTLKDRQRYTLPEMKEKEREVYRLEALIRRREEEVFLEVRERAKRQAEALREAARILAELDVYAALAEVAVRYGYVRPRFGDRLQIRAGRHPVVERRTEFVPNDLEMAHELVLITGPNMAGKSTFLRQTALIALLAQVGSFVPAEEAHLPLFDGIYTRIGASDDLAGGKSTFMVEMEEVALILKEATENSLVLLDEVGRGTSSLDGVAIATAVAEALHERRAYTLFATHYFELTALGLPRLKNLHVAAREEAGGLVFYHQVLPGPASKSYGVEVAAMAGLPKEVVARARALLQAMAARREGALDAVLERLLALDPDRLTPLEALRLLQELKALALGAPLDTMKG

T2: MutS (Thermus aquaticus, UniProt Q56215 1-811)
T2 sequence: T1 sequence with A41E

B1: GT mismatch DNA (A1/B1/C1-GT) (dsDNA)
DNA 1: TGTCGGGGCTGGCTTAAGGTGTGAAATACCTCATCTCGAGCGTGCCGATA
DNA 2: TATCGGCACGTTCGAGATG
DNA 3: AGGTATTTCACACCTTAAGCCAGCCCCGACA
B2: T-bulge DNA (A1/B1/C2-T-bulge) (dsDNA)
DNA 1: B1 DNA 1
DNA 2: TATCGGCACGTCTCGAGATG
DNA 3: B1 DNA 3

Experiments:
Assay in all cases: smFRET
MutS-E41A [1] = target: T1, MutS-E41A
MutS [2] = target: T2, MutS
MutS [3] = target: T2, MutS; remark: listed apart in the source
MutS-E41A [4] = target: T1, MutS-E41A; remark: listed apart in the source

Binder	binding result (MutS-E41A [1])	binding result (MutS [2])	binding result (MutS [3])	binding result (MutS-E41A [4])
B1	binds	binds		
B2			binds	binds
